# Source: the supplement of paper PMC10126150
# ± gives the standard deviation of the averaged measurements.
# System: ATP
# Test: switch fluorescence ratio, 500 uM ATP over buffer (Cy3 cluster intensity, sum of 5 cycles each) (fold (ratio)); higher = stronger signal-on switching upon ATP binding; sequences stand for … in TCGTCGGCAGCGTCAGATGTGTATAAGAGACAGTTTTTTTTTTTTTTTTTTTTTTTTT…TC
# Settings: aptamer strand: ATP DNA aptamer (quencher-CACCTGGGGGAGTATTGCGGAGGAAGG + anchor), 100 nM annealed; ATP concentration: 500 uM
# How it was run: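 Clusters carrying Cy3-labelled switching strands on a modified Illumina MiSeq flow-cell were annealed to 100 nM quencher-labelled ATP aptamer and imaged in selection buffer. They were imaged again after 15 min with 500 uM ATP at 22 °C, over five buffer/ATP cycles with NaOH stripping and re-annealing in between. For each cluster, the fluorescence ratio is the summed Cy3 intensity of the target cycles divided by that of the buffer cycles, averaged per switch-domain sequence. Clusters outside 100-1000 RFU were left out.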
# 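Further: ATP exposure 15 min at 22 °C before imaging.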
row,Sequence,switch fluorescence ratio
1,GAGTAATGCT,1.27 ± 0.017
2,GAGTACAAAG,1.02 ± 0.0041
3,GAGTACAGCT,1.01 ± 0.018
4,GAGTACTGTA,1.14 ± 0.053
5,GAGTAGAGGG,0.954 ± 0.014
6,GAGTAGCATG,0.993 ± 0.022
7,GAGTAGGAGC,1.02 ± 0.033
8,GAGTAGGCTA,0.973 ± 0.035
9,GAGTAGTGCT,1.03 ± 0.018
10,GAGTAGTGGG,0.982 ± 0.037
11,GAGTAGTGTT,0.984 ± 0.02
12,GAGTAGTTGT,0.9969 ± 0.0083
13,GAGTATGAGA,1.009 ± 0.01
14,GAGTATTAGG,1.02 ± 0.0094
15,GAGTATTTTC,1.015 ± 0.0065
16,GAGTCAGAGG,0.989 ± 0.039
17,GAGTCAGC,1.08 ± 0.14
18,GAGTCAGTAT,1.03 ± 0.039
19,GAGTCGAATT,0.9738 ± 0.0058
20,GAGTCGGATG,0.967 ± 0.012
21,GAGTCTTTGG,0.973 ± 0.021
22,GAGTCTTTTG,1.013 ± 0.0096
23,GAGTGAATTT,1.0074 ± 0.00014
24,GAGTGAGACT,1.02 ± 0.072
25,GAGTGATAAG,1 ± 0.017

row,Sequence,switch fluorescence ratio
1,GAGTGCGCTG,1.02 ± 0.04
2,GAGTGCGGAT,0.98 ± 0.026
3,GAGTGCTATT,0.981 ± 0.013
4,GAGTGGAGTG,1.02 ± 0.079
5,GAGTGGGATT,0.981 ± 0.011
6,GAGTGGGGTT,1.011 ± 0.0024
7,GAGTGGGTCG,0.983 ± 0.024
8,GAGTGGTAGG,1.01 ± 0.021
9,GAGTGTAGTC,1.06 ± 0.011
10,GAGTGTCGCC,0.99 ± 0.021
11,GAGTGTGATG,0.97 ± 0.021
12,GAGTTACATG,1.02 ± 0.048
13,GAGTTAGAAG,0.9657 ± 0.0014
14,GAGTTAGTCA,0.975 ± 0.024
15,GAGTTAGTTG,0.987 ± 0.093
16,GAGTTATTGT,0.9806 ± 0.0095
17,GAGTTATTTT,0.976 ± 0.017
18,GAGTTCGTAA,1.46 ± 0.15
19,GAGTTCTTAG,0.9587 ± 0.0011
20,GAGTTCTTCA,0.973 ± 0.015
21,GAGTTGAGTT,1.01 ± 0.074
22,GAGTTGGGTT,1.01 ± 0.034
23,GAGTTGTGCC,1.1 ± 0.032
24,GAGTTTCATG,0.963 ± 0.015
25,GAGTTTGAAA,0.993 ± 0.041

row,Sequence,switch fluorescence ratio
1,GAGTTTGAAT,0.969 ± 0.021
2,GAGTTTGTGT,0.996 ± 0.011
3,GAGTTTGTTG,0.985 ± 0.014
4,GAGTTTTTTT,0.987 ± 0.033
5,GATAAACGAT,1.02 ± 0.031
6,GATAAAGTGG,0.995 ± 0.041
7,GATAAGTCGG,1.009 ± 0.01
8,GATAATCTGT,0.984 ± 0.048
9,GATAATTGAG,1.04 ± 0.044
10,GATAATTTGT,0.973 ± 0.065
11,GATACATTAT,0.998 ± 0.028
12,GATACCGTGC,1.18 ± 0.061
13,GATACCTTTT,1.13 ± 0.24
14,GATACGAACG,1.32 ± 0.043
15,GATACGAAGT,0.981 ± 0.028
16,GATACGGGGA,0.988 ± 0.029
17,GATACTGAAC,1.3 ± 0.024
18,GATAGACGGT,1.01 ± 0.047
19,GATAGAGATT,0.9961 ± 0.0066
20,GATAGAGTAG,1.016 ± 0.0019
21,GATAGCGGGA,0.97 ± 0.058
22,GATAGGGCAA,1.08 ± 0.075
23,GATAGGGCTT,0.994 ± 0.056
24,GATAGGGTAC,1.0351 ± 0.0001
25,GATAGGTGCC,1.002 ± 0.0027

row,Sequence,switch fluorescence ratio
1,GATAGGTTGG,0.985 ± 0.066
2,GATAGTTCGC,1.01 ± 0.015
3,GATATATATC,0.9903 ± 0.0054
4,GATATATGCA,0.997 ± 0.028
5,GATATATGGT,0.9833 ± 0.0077
6,GATATGGCAC,1.05 ± 0.042
7,GATATGTGTT,1.001 ± 0.0024
8,GATATGTTCC,1.13 ± 0.084
9,GATATGTTTT,1 ± 0.035
10,GATATTATGA,1.01 ± 0.01
11,GATATTCCTG,1 ± 0.03
12,GATATTGGTT,1.02 ± 0.025
13,GATATTTGGA,0.996 ± 0.041
14,GATATTTTA,0.9929 ± 0.0069
15,GATCAGCCCG,1.016 ± 0.005
16,GATCAGGGGT,1.06 ± 0.044
17,GATCAGGTCT,0.987 ± 0.032
18,GATCAGTGTT,0.9783 ± 0.0093
19,GATCATAAAA,1.02 ± 0.017
20,GATCATAGGG,1.01 ± 0.018
21,GATCATCCTG,1.008 ± 0.0065
22,GATCCAATGT,0.993 ± 0.019
23,GATCCATGCT,0.9536 ± 0.0019
24,GATCCGCTGG,1.11 ± 0.012
25,GATCCGGGGG,0.988 ± 0.043

row,Sequence,switch fluorescence ratio
1,GATCCTGGGG,0.974 ± 0.054
2,GATCGAAACT,1.01 ± 0.081
3,GATCGAGACC,1.024 ± 0.0044
4,GATCGGATGT,0.981 ± 0.011
5,GATCGGGGGG,0.983 ± 0.041
6,GATCGGGGTG,0.965 ± 0.021
7,GATCGGTGCT,1 ± 0.015
8,GATCGTACTT,1.08 ± 0.015
9,GATCGTTGTC,0.988 ± 0.027
10,GATCGTTTTA,1 ± 0.022
11,GATCTAAAAG,1.03 ± 0.017
12,GATCTAGGAG,1.02 ± 0.017
13,GATCTGGACA,1.01 ± 0.032
14,GATCTTCGTT,1.01 ± 0.041
15,GATCTTGTTT,0.976 ± 0.018
16,GATCTTTCAT,1 ± 0.018
17,GATCTTTTTT,1.02 ± 0.023
18,GATGAAAAAA,1.02 ± 0.037
19,GATGAAAGGC,1.046 ± 0.0017
20,GATGAAAGGT,1.002 ± 0.0047
21,GATGAAATGT,0.994 ± 0.015
22,GATGAATGAC,1.02 ± 0.016
23,GATGAATGTC,1.04 ± 0.13
24,GATGAATTGC,1.01 ± 0.033
25,GATGACAGGG,1.01 ± 0.12

row,Sequence,switch fluorescence ratio
1,GATGAGCCGG,1 ± 0.027
2,GATGAGGATG,0.987 ± 0.014
3,GATGAGGGGT,0.986 ± 0.038
4,GATGATGATG,1.014 ± 0.0022
5,GATGATGCTG,1.03 ± 0.017
6,GATGATGTAT,1.01 ± 0.033
7,GATGATTGGT,0.998 ± 0.015
8,GATGATTTTA,1.02 ± 0.042
9,GATGCGGTG,1 ± 0.012
10,GATGCGGTTA,0.988 ± 0.031
11,GATGCGGTTT,0.994 ± 0.019
12,GATGCTCCTT,1.05 ± 0.031
13,GATGCTCGAG,1 ± 0.016
14,GATGCTGGCG,1.01 ± 0.052
15,GATGGACCTT,1.08 ± 0.11
16,GATGGAGTGT,0.978 ± 0.018
17,GATGGAGTTG,1.013 ± 0.0053
18,GATGGCCCTT,0.99064 ± 0.00065
19,GATGGCTGTG,1.021 ± 0.01
20,GATGGGAGGA,0.9639 ± 0.005
21,GATGGGAGTG,1 ± 0.029
22,GATGGGATTG,0.966 ± 0.037
23,GATGGGCTCG,0.988 ± 0.025
24,GATGGGGATG,0.9677 ± 0.0045
25,GATGGGGATT,1.04 ± 0.069

row,Sequence,switch fluorescence ratio
1,GATGGGGCGC,0.975 ± 0.069
2,GATGGGGCGT,0.989 ± 0.055
3,GATGGGGTCC,0.949 ± 0.015
4,GATGGGGTGG,1 ± 0.016
5,GATGGGTACG,1.02 ± 0.042
6,GATGGGTCGT,1 ± 0.033
7,GATGGGTCTG,0.948 ± 0.014
8,GATGGGTTCT,0.9926 ± 0.0044
9,GATGGGTTGA,1.06 ± 0.03
10,GATGGGTTGG,0.9899 ± 0.008
11,GATGGTAGCT,1.04 ± 0.074
12,GATGGTATGG,1.007 ± 0.0052
13,GATGGTGAGA,1.02 ± 0.065
14,GATGGTTAAC,1.01 ± 0.0045
15,GATGGTTGTG,0.95 ± 0.037
16,GATGTACAGT,1.035 ± 0.0072
17,GATGTAGGAA,1.013 ± 0.0065
18,GATGTATGTA,0.973 ± 0.021
19,GATGTATTCG,1.001 ± 0.0089
20,GATGTCAAGA,1.01 ± 0.023
21,GATGTCCCGG,0.987 ± 0.022
22,GATGTCGTGC,1.03 ± 0.031
23,GATGTGAGCC,1.01 ± 0.018
24,GATGTTAATA,0.985 ± 0.085
25,GATGTTAGTG,1.003 ± 0.008

row,Sequence,switch fluorescence ratio
1,GATGTTCAGG,0.9875 ± 0.0011
2,GATGTTGTAT,1.01 ± 0.021
3,GATGTTGTGG,0.9751 ± 0.0029
4,GATGTTTAAT,0.991 ± 0.029
5,GATGTTTGCG,0.994 ± 0.034
6,GATGTTTTAC,0.998 ± 0.025
7,GATTAAAGTC,1.03 ± 0.034
8,GATTAACGGT,1.012 ± 0.0084
9,GATTAAGGT,0.992 ± 0.014
10,GATTACAGTG,1.02 ± 0.047
11,GATTACGGGA,1.052 ± 0.0098
12,GATTAGAAGT,0.996 ± 0.016
13,GATTAGGCAT,0.996 ± 0.039
14,GATTAGGTGA,1.06 ± 0.014
15,GATTATAGTA,0.952 ± 0.027
16,GATTATCATT,0.9669 ± 0.0093
17,GATTATTCTG,0.966 ± 0.039
18,GATTATTTGA,0.992 ± 0.061
19,GATTCACGGT,1.01 ± 0.02
20,GATTCACGTT,1.052 ± 0.0043
21,GATTCAGCGG,0.97 ± 0.015
22,GATTCAGGAA,1 ± 0.047
23,GATTCAGGTA,1.01 ± 0.026
24,GATTCCAGTT,1.01 ± 0.032
25,GATTCGTGAC,1.03 ± 0.052
